Results as given in paper PMC12098658, “JMY powers dendritogenesis and is regulated by CaM revealing a general, critical principle in neuromorphogenesis” (Communications Biology, 2025).

How the values were obtained:
Conditions in all cases: both partners purified
[1] = target: T1, Sepharose 4B-coupled CaM (UniProt P0DP23 1-149, coupled to Sepharose 4B); assay: pull-down; purified GST-JMY WH2#1 or GST with immobilised CaM; IP buffer with 150 mM NaCl and 2 µM Ca2+ (1 mM EGTA for comparison); immunoblot
T1 construct: calmodulin (CaM), bought coupled to Sepharose 4B; also called immobilized CaM; CaM matrix; source: bought: GE Healthcare (coupled to Sepharose 4B)

[2] = target: rabbit skeletal muscle actin (rabbit, UniProt P68135 1-377); assay: pull-down; in vitro reconstitution: GST-JMY WH2#1 immobilised, untagged CaM and rabbit skeletal muscle α-actin together; 10 mM HEPES pH 7.4, 250 mM NaCl, 0.1 mM MgCl2, 1% Triton X-100, with 1 mM EGTA or 20 µM Ca2+; quantitative fluorescence immunoblot
[3] = target: T2, untagged recombinant CaM (UniProt P0DP23 1-149); assay: as above
T2 construct: calmodulin (CaM), subcloned from Mito-mCherry-CaM into pGEX-6P; A few vector residues probably remain after PreScission cleavage; also called calmodulin; source: E. coli BL21, purified as GST-CaM (pGEX-6P), GST removed with PreScission Protease

Measured: binding result

B1: GST-JMY WH2#1 (domain or fragment)
chain: GNERSIPKSASAPAAHLFDSSQLVSARKKLRKTVEGLQRRRVS
notes: Mus musculus JMY, NP_067285.2, residues 841-883 (subcloned from GFP-JMY WH2#1 into pGEX-4T1); pGEX-4T1 by surmise puts GST at the N-terminus; also called first WH2 domain of JMY and flanking regions; source: E. coli BL21, purified (glutathione sepharose)
binds: all assays above
